The target in this test is human carcinoembryonic antigen (CEA) (Homo sapiens, UniProt P06731). Description: flow cytometry on cells. On the technique in general: In flow cytometry, cells or beads pass a laser one at a time.
human carcinoembryonic antigen (CEA), sequence (P06731 35-685): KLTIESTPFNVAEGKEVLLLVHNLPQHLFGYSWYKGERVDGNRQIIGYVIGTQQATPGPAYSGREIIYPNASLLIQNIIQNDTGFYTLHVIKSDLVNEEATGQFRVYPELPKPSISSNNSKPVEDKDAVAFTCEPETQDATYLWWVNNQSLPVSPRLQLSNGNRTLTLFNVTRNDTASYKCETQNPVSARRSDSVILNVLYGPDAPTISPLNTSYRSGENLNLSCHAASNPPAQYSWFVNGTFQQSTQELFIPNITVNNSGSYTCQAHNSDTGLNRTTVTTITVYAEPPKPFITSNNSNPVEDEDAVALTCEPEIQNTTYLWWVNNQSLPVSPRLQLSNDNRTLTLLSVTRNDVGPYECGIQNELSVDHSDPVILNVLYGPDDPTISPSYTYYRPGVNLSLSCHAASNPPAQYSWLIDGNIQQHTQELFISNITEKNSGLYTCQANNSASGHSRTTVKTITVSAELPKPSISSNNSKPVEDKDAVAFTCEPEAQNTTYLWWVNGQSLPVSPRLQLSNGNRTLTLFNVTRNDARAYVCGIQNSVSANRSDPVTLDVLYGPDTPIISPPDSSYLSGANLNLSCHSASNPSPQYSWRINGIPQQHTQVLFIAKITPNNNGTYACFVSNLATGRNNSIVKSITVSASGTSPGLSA

B1: Sm3E-TNF (scFv, V domains shown)
VH: QVKLEQSGAEVVKPGASVKLSCKASGFNIKDSYMHWLRQGPGQRLEWIGWIDPENGDTEYAPKFQGKATFTTDTSANTAYLGLSSLRPEDTAVYYCNEGTPTGPYYFDYWGQGTLVTVSS
VL: ENVLTQSPSSMSVSVGDRVTIACSASSSVPYMHWLQQKPGKSPKLLIYLTSNLASGVPSRFSGSGSGTDYSLTISSVQPEDAATYYCQQRSSYPLTFGGGTKLEIK
For the molecule B1, the binding result was “binds”.

The values are drawn from paper doi:10.1101/698563 (bioRxiv, 2019).
